Assay results published in patent US10870710B2, “Synthetic oligosaccharide subunits of the Psl exopolysaccharide of pseudomonas aeruginosa and uses thereof” (Medlmmune Limited, priority 2013, dated 2020).

Key:
Psl = assay: mAb reactivity with Psl after mild alkaline treatment during carbohydrate purification; assay type: binding, P. aeruginosa; conditions: data not shown
Description: This observation raises the possibility that the class I mAb binds to a conformational epitope or a yet to be elucidated sub-stoichiometric Psl isoform. The potential for the latter is supported by the observation that mild alkaline, but not exhaustive protease treatment, during carbohydrate purification abolishes Cam-003 reactivity while maintaining WapR-001 and WapR-016 reactivity (data not shown).

[1] = target: Pseudomonas aeruginosa Psl exopolysaccharide; conditions: anti-Psl mAb binding; cited from earlier work
[2] = tested on: attachment of Pseudomonas aeruginosa to epithelial cells; conditions: mAb concentration giving max. inhibition of cell attachment; cited from earlier work
P. aeruginosa = conditions: cited from earlier work

Row | Molecule | mAb reactivity after mild alkaline treatment of Psl (Psl) | Kd [1] [nM] | Cell attachment max. inhibition [2] [µg/mL] | OPK EC50 (P. aeruginosa) [µg/mL]
1 | WapR-001: anti-Psl monoclonal antibody, class II epitope; VH SEQ ID NO: 5, VL SEQ ID NO: 6 (antibody, V domains shown, WapR-001 VH; WapR-001 VL) VH: EVQLLESGGGLVQPGGSLRLSCSASGFTFSRYPMHWVRQAPGKGLEYVSDIGTNGGSTNYADSVKGRFTISRDNSKNTVYLQMSSLRAEDTAVYHCVAGIAAAYGFDVWGQGTMVTVSS VL: QAGLTQPASVSGSPGQSITISCTGTSSDIATYNYVSWYQQHPGKAPKLMIYEGTKRPSGVSNRFSGSKSGNTASLTISGLQAEDEADYYCSSYARSYTYVFGTGTELTVL | maintaining | 0.84 | 30.0 | 0.310
2 | WapR-003: anti-Psl monoclonal antibody, class II epitope; VH SEQ ID NO: 9, VL SEQ ID NO: 10 (antibody, V domains shown, WapR-003 VH; WapR-003 VL) VH: QMQLVQSGGGLVQPGGSLRLSCSASGFTFSSYPMHWVRQAPGKGLDYVSDISPNGGATNYADSVKGRFTISRDNSKNTVYLQMSSLRAEDTAVYYCVMGLVPYGFDNWGQGTMVTVSS VL: QTVVTQPASVSASPGQSITISCAGTSGDVGNYNFVSWYQQHPGKAPKLLIYEGSQRPSGVSNRFSGSRSGNTASLTISGLQAEDEADYYCSSYARSYTYVFGTGTKLTVL | – | 12.2 | 30.0 | 0.278
3 | WapR-002: anti-Psl monoclonal antibody, class II epitope; VH SEQ ID NO: 7, VL SEQ ID NO: 8 (antibody, V domains shown, WapR-002 VH; WapR-002 VL) VH: QVQLVQSGGGLVQPGGSLRLSCSASGFTFSSYPMHWVRQAPGKGLDYVSDISPNGGSTNYADSVKGRFTISRDNSKNTLFLQMSSLRAEDTAVYYCVMGLVPYGFDIWGQGTLVTVSS VL: QTVVTQPASVSGSPGQSITISCTGTSSDVGGYNYVSWYQQHPGKAPKLMIYEVSNRPSGVSNHFSGSKSGNTASLTISGLQAEDEADYYCSSYTTSSTYVFGTGTKVTVL | – | 12.6 | 30.0 | 0.396
